PMC7383310
“And” between values parts separate entries of the source, which are not always exact repeats. Identical values can stand only once.

Molecular target: recombinant human galectin-3 protein (human) (UniProt P17931)
Assay: AlphaScreen or HTRF; indirect AlphaLISA saturation binding; His-tagged tau K18 (0-100 nM, analyte) on anti-His donor beads, untagged GAL-3 (1, 3 and 10 nM) captured by anti-GAL-3 antibody and anti-rabbit IgG acceptor beads; proteins incubated 60 min at 4°C, beads 60 min at RT in the dark; assay buffer in DPBS; Kd = concentration at 50% saturation

Sequence of UniProt P17931 (P17931 whole entry): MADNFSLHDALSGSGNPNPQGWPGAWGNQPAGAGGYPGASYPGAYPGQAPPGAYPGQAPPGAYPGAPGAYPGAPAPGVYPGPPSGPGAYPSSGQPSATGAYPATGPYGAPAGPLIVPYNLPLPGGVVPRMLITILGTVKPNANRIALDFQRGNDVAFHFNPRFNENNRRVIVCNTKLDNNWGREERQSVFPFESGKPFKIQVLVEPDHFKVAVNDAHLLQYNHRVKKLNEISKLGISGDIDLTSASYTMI

Kd: 8.31 nM and 8.73 nM and 9.13 nM
Substance: His-tagged human tau K18 fragment (domain or fragment)
